These results are taken from IntAct's records for PubMed 17215868.

Sequences and labels used below:
B1: Vacuolar protein-sorting-associated protein 36 (Saccharomyces cerevisiae), Q06696 (parent)
chain: MEYWHYVETTSSGQPLLREGEKDIFIDQSVGLYHGKSKILQRQRGRIFLTSQRIIYIDDAKPTQNSLGLELDDLAYVNYSSGFLTRSPRLILFFKDPSSKDELGKSAETASADVVSTWVCPICMVSNETQGEFTKDTLPTPICINCGVPADYELTKSSINCSNAIDPNANPQNQFGVNSENICPACTFANHPQIGNCEICGHRLPNASKVRSKLNRLNFHDSRVHIELEKNSLARNKSSHSALSSSSSTGSSTEFVQLSFRKSDGVLFSQATERALENILTEKNKHIFNQNVVSVNGVDMRKGASSHEYNNEVPFIETKLSRIGISSLEKSRENQLLNNDILFNNALTDLNKLMSLATSIERLYKNSNITMKTKTLNLQDESTVNEPKTRRPLLILDREKFLNKELFLDEIAREIYEFTLSEFKDLNSDTNYMIITLVDLYAMYNKSMRIGTGLISPMEMREACERFEHLGLNELKLVKVNKRILCVTSEKFDVVKEKLVDLIGDNPGSDLLRLTQILSSNNSKSNWTLGILMEVLQNCVDEGDLLIDKQLSGIYYYKNSYWPSHI
partner: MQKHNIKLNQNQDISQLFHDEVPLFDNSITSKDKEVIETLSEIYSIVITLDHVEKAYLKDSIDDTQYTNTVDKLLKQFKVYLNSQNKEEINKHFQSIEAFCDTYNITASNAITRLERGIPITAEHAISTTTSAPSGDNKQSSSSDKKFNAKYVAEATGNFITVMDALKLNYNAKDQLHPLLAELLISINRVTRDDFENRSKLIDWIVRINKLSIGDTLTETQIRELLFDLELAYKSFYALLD

The variants in one test derive from B1. As to conditions: with vps28_yeast VPS28, Q02767.
With MEYWHYVETTSSGQPLLREGEKDIFIDQSVGLYHGKSKILQRQRGRIFLTSQRIIYIDDAKPTQNSLGLELDDLAYVNYSSGFLTRSPRLILFFKDPSSKDELGKSAETASADVVSTWVCPDCMVSNETQGEFTKDTLPTPICINCGDPADYELTKSSINCSNAIDPNANPQNQFGVNSENICPACTFANHPQIGNCEICGHRLPNASKVRSKLNRLNFHDSRVHIELEKNSLARNKSSHSALSSSSSTGSSTEFVQLSFRKSDGVLFSQATERALENILTEKNKHIFNQNVVSVNGVDMRKGASSHEYNNEVPFIETKLSRIGISSLEKSRENQLLNNDILFNNALTDLNKLMSLATSIERLYKNSNITMKTKTLNLQDESTVNEPKTRRPLLILDREKFLNKELFLDEIAREIYEFTLSEFKDLNSDTNYMIITLVDLYAMYNKSMRIGTGLISPMEMREACERFEHLGLNELKLVKVNKRILCVTSEKFDVVKEKLVDLIGDNPGSDLLRLTQILSSNNSKSNWTLGILMEVLQNCVDEGDLLIDKQLSGIYYYKNSYWPSHI [I122D;V148D], the “effect of a mutation on the interaction” value is recorded as “disrupting interaction”.

In another test the parent is B1. The settings on record: with vps28_yeast VPS28, Q02767. This is another data set of the same source.
Turning to MEYWHYVETTSSGQPLLREGEKDIFIDQSVGLYHGKSKILQRQRGRIFLTSQRIIYIDDAKPTQNSLGLELDDLAYVNYSSGFLTRSPRLILFFKDPSSKDELGKSAETASADVVSTWVCPICMVSNETQGEFTKDTLPTPICINCGVPARYERTKSSINCSNAIDPNANPQNQFGVNSENICPACTFANHPQIGNCEICGHRLPNASKVRSKLNRLNFHDSRVHIELEKNSLARNKSSHSALSSSSSTGSSTEFVQLSFRKSDGVLFSQATERALENILTEKNKHIFNQNVVSVNGVDMRKGASSHEYNNEVPFIETKLSRIGISSLEKSRENQLLNNDILFNNALTDLNKLMSLATSIERLYKNSNITMKTKTLNLQDESTVNEPKTRRPLLILDREKFLNKELFLDEIAREIYEFTLSEFKDLNSDTNYMIITLVDLYAMYNKSMRIGTGLISPMEMREACERFEHLGLNELKLVKVNKRILCVTSEKFDVVKEKLVDLIGDNPGSDLLRLTQILSSNNSKSNWTLGILMEVLQNCVDEGDLLIDKQLSGIYYYKNSYWPSHI [D151R;L154R], the “effect of a mutation on the interaction” value is on record as “disrupting interaction”.

Another test covers variants of B1. As to conditions: with vps28_yeast VPS28, Q02767. This is another data set of the same source.
Consider MEYWHYVETTSSGQPLLREGEKDIFIDQSVGLYHGKSKILQRQRGRIFLTSQRIIYIDDAKPTQNSLGLELDDLAYVNYSSGFLTRSPRLILFFKDPSSKDELGKSAETASADVVSTWVCPDCMVSNETQGEFTKDTLPTPICINCGVPADYELTKSSINCSNAIDPNANPQNQFGVNSENICPACTFANHPQIGNCEICGHRLPNASKVRSKLNRLNFHDSRVHIELEKNSLARNKSSHSALSSSSSTGSSTEFVQLSFRKSDGVLFSQATERALENILTEKNKHIFNQNVVSVNGVDMRKGASSHEYNNEVPFIETKLSRIGISSLEKSRENQLLNNDILFNNALTDLNKLMSLATSIERLYKNSNITMKTKTLNLQDESTVNEPKTRRPLLILDREKFLNKELFLDEIAREIYEFTLSEFKDLNSDTNYMIITLVDLYAMYNKSMRIGTGLISPMEMREACERFEHLGLNELKLVKVNKRILCVTSEKFDVVKEKLVDLIGDNPGSDLLRLTQILSSNNSKSNWTLGILMEVLQNCVDEGDLLIDKQLSGIYYYKNSYWPSHI [I122D], for which the “effect of a mutation on the interaction” value is given as “disrupting interaction”.

The variants in the next test derive from B1. As to conditions: with vps28_yeast VPS28, Q02767. This is another data set of the same source.
For the variant MEYWHYVETTSSGQPLLREGEKDIFIDQSVGLYHGKSKILQRQRGRIFLTSQRIIYIDDAKPTQNSLGLELDDLAYVNYSSGFLTRSPRLILFFKDPSSKDELGKSAETASADVVSTWVCPICMVSNETQGEFTKDTLPTPICINCGDPARYELTKSSINCSNAIDPNANPQNQFGVNSENICPACTFANHPQIGNCEICGHRLPNASKVRSKLNRLNFHDSRVHIELEKNSLARNKSSHSALSSSSSTGSSTEFVQLSFRKSDGVLFSQATERALENILTEKNKHIFNQNVVSVNGVDMRKGASSHEYNNEVPFIETKLSRIGISSLEKSRENQLLNNDILFNNALTDLNKLMSLATSIERLYKNSNITMKTKTLNLQDESTVNEPKTRRPLLILDREKFLNKELFLDEIAREIYEFTLSEFKDLNSDTNYMIITLVDLYAMYNKSMRIGTGLISPMEMREACERFEHLGLNELKLVKVNKRILCVTSEKFDVVKEKLVDLIGDNPGSDLLRLTQILSSNNSKSNWTLGILMEVLQNCVDEGDLLIDKQLSGIYYYKNSYWPSHI [V148D;D151R], the “effect of a mutation on the interaction” value is listed as “disrupting interaction”.
